Measurements from patent EP2060581A1 (Chemotherapeutisches Forschungsinstitut Georg-Speyer-Haus, dated 2009).

Target: T1, ErbB2 receptor (UniProt P04626 23-1255)
T1 construct: Whole endogenous receptor from cell extracts, immunoprecipitated with an ErbB2 antibody
Assay: co-immunoprecipitation from SK-BR3 membrane extracts with an ErbB2 antibody, Western blot with Flag antibody

B1: mt bTrx-All-7 (designed binder)
chain: MSDKIIHLTDDSFDTDVLKADGAILVDFWAEWSGPPLNFYRHGFLPNAVMASMLEVGPWFELLGPCGLAGHPLSSLRIGPSKMIAPILDEIADEYQGKLTVAKLNIDQNPGTAPKYGIRGIPTLLLFKNGEVAATKVGALSKGQLKEFLDANLA
notes: Purified recombinant protein; Largely monomeric; also called All-7 aptamer in mutated bTrx (mt); All-7 in the mutated scaffold; not shown: Flag-tag, one or two His-tags and a 9R protein transduction domain
fold increase in binding against wt bTrx-All-7: 2.4 fold
